Our source for the Kd and EC50 (read off the curve) values is US20050106145A1.

Assay [1] has as its target human tenascin-C (human) (UniProt P24821). The assay is described as follows: BIAcore. For orientation: In SPR one partner is held on a chip, and binding of the other changes the refractive index at the surface.
Assay [2] shares this target. The assay is described as follows: ELISA, tenascin 5 µg/ml. On the technique in general: An ELISA detects its analyte on a solid surface through an enzyme-linked reagent.

human tenascin-C (human), sequence (P24821 23-2201 limits assumed): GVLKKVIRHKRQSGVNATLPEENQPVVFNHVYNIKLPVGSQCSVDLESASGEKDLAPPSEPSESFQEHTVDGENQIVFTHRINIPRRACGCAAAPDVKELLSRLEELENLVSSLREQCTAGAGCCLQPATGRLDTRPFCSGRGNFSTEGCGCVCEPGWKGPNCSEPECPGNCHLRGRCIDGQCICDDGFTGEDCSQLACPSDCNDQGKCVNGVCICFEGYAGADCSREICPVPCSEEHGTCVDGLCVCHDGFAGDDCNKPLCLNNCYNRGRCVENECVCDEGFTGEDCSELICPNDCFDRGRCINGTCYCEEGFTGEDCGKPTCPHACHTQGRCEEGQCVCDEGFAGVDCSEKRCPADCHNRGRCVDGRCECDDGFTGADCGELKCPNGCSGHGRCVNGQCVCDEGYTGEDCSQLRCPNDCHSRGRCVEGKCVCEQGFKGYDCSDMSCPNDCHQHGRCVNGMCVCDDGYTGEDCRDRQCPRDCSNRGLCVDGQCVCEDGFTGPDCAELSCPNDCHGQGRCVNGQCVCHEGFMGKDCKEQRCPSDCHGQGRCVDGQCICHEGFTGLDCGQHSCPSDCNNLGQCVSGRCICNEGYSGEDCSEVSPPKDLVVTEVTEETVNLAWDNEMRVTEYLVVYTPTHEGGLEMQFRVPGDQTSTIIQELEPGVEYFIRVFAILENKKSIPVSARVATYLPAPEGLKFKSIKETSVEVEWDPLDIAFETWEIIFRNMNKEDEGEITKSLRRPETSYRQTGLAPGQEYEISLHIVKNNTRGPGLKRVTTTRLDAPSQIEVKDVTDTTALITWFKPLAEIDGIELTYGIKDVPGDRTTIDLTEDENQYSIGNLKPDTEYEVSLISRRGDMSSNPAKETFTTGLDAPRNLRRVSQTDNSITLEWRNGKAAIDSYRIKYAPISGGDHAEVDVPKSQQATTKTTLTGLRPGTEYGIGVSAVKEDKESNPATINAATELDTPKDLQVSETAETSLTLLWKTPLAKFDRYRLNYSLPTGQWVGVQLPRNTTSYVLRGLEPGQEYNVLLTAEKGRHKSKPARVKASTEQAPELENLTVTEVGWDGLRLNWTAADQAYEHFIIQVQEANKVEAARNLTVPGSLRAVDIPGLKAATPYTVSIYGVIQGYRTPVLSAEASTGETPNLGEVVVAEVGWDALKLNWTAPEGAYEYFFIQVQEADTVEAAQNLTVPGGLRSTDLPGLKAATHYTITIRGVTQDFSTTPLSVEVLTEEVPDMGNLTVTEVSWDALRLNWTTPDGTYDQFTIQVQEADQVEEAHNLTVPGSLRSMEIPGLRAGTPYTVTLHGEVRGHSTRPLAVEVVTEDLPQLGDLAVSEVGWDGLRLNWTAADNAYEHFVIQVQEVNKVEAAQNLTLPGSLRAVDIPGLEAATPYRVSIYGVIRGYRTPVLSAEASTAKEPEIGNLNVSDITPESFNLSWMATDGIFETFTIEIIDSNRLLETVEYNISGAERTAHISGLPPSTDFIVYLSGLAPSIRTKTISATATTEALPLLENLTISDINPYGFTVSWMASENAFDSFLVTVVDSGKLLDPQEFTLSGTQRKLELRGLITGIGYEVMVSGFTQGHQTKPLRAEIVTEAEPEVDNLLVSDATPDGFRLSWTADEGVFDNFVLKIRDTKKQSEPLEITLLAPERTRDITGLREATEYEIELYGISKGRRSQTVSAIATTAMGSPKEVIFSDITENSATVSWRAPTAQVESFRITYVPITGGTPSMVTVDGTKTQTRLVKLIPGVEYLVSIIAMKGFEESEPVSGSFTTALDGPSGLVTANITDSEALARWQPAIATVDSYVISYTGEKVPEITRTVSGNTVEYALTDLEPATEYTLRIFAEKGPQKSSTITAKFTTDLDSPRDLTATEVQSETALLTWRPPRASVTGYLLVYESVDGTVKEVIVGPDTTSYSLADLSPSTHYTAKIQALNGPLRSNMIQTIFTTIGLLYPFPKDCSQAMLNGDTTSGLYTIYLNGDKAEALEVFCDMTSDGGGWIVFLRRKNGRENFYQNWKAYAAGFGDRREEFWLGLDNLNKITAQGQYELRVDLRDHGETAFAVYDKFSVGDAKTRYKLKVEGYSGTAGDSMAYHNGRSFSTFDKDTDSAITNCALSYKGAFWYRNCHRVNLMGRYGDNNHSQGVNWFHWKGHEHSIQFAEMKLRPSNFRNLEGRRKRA

Turning to BC4 anti-tenascin monoclonal antibody, in the assay with human tenascin-C (human) [1], the Kd – broadly, the free concentration of one partner at which half of the binding sites on the other are occupied at equilibrium, for simple one-to-one binding – stood at 4.9 nM. Moreover, in the assay with human tenascin-C (human) [2], the EC50 (read off the curve) (in general, the concentration giving half of the maximal effect) was determined as 0.2 µg/mL.
